In the supplement of paper PMC9170038:

Experiments:
MS2 coat protein = test: apparent KD of MS2 coat protein; higher = weaker reporter binding; conditions: Eterna round: R107
Protocol: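 RNA-MaP round R107: designed RNA switches with theophylline, tryptophan, arginine or FMN aptamers are transcribed on-chip within common flanks. They are titrated with SNAP-549-labelled MS2 coat protein in RNA-MaP buffer (100 mM Tris pH 7.5, 80 mM KCl, 4 mM MgCl2), without ligand or with the indicated ligand. Median apparent KD per design.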

[1] = system: K4 kissing-loop RNA reporter; test: apparent KD of K4 kissing-loop reporter; higher = weaker reporter binding; conditions: Eterna round: R107;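 note: bound reporter read as fluorescence of individual clusters on recovered sequencing chips by microscopy, with normalized cluster intensities fitted with a binding model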
Protocol: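 RNA-MaP round R107: designed RNA switches with theophylline, tryptophan, arginine or FMN aptamers are transcribed on-chip within common flanks. They are titrated with a labelled K4 kissing-loop RNA reporter in RNA-MaP buffer (100 mM Tris pH 7.5, 80 mM KCl, 4 mM MgCl2), without ligand or with the indicated ligand. Median apparent KD per design.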

[2] = input ligand: theophylline 20 uM
[3] = input ligand: theophylline 2 mM
[4] = input ligand: tryptophan 2.4 mM

Row | Sequence | apparent KD of MS2 coat protein (MS2 coat protein; input ligand: arginine 13.2 mM) [nM] | apparent KD of MS2 coat protein (MS2 coat protein; [2]) [nM] | apparent KD of MS2 coat protein (MS2 coat protein; [3]) [nM] | apparent KD of MS2 coat protein (MS2 coat protein; input ligand: none) [nM] | apparent KD of MS2 coat protein (MS2 coat protein; [4]) [nM] | apparent KD of K4 kissing-loop reporter ([1]; input ligand: FMN 200 uM) [nM] | apparent KD of K4 kissing-loop reporter ([1]; input ligand: arginine 13.2 mM) [nM] | apparent KD of K4 kissing-loop reporter ([1]; input ligand: none) [nM] | apparent KD of K4 kissing-loop reporter [1, 2] [nM] | apparent KD of K4 kissing-loop reporter [1, 4] [nM]
1 | ACAUUAGCCACGGCCGCCACUGCUUUAUGAUUAUAAGGAUUAAUGAACAUGAGGAUCACCCAUGUCAGGACCGGGUGCCUACCAU [SSTryp B #4] | 31.4 | 42.3 | 39 | – | – | – | – | – | – | –
2 | GCUGUGAAGUCGGCCGCCACUGGUUAGUUUAACCUCAUGUAACAUGAGGAUCACCCAUGUAAUGUCAGGACCGGGACAACAGCAA [JR_ExcTryptoB_Sub016] | 131 | 236 | 289 | 145 | 357 | – | – | – | – | –
3 | GGCUAGUGCAUCGAUACCAGCUACAUGAGGAUCACCCAUGUAGGAAGGGUGGUACUCGAUAGCCCUUGGCAGCGAACACCUCCGG [Quoran] | 18.7 | 35.7 | – | – | 18.8 | – | – | – | – | –
4 | CGCACAUGAGGAUCACCCAUGUGAGGGCGUCGAGGACCGGUACGGCCGCCACUCGCAGGACAUGAGGAUCACCCAUGUGCCGCCG [SSTA DOUBLE!!! :-D #4] | 39.8 | 131 | 145 | – | – | – | – | – | – | –
5 | UCGUUUUAGUCGGCCGCCACUGUGAGCAUGGUUAACAUGAGGAUCACCCAUGUCCCGUACUAUAACAGGACCGGGACGUAGUUGC [#09 Same State - Tryptophan B] | 76.4 | 109 | 253 | – | – | – | – | – | – | –
6 | GCCAUCGGCGGAAGCCGAUGGGAUACAGAAGGAGCGCGGAUUAACGCAGGUAGGUCGCUGGACAUGAGGAUCACCCAUGUAAUAG [SSAA #9] | 19.2 | 41.9 | 22.5 | 22.8 | 18.5 | – | – | – | – | –
7 | CACUACAUGAGGAUCACCCAUGUCUUCCGACGAGGACCGGUACGGCCGCCACUCGAACCUCCAACUAAUACCUCAACCGUCUGAU [theeternabot_sameState_MS2_Trp_A_25] | 36.5 | 110 | 101 | – | – | – | – | – | – | –
8 | GUACAUGAGGAUCACCCAUGUAUAGUUGAAGGAGCGACCGGAGGGUCAGGUAGGUCGCAGCACAUGGCGUAAACCCGUGUAUGCC [#1 Exclusion - Arginine A Attempt #24 (Inspired by Pi)] | 18.5 | 32.7 | 31.9 | 21.7 | 23 | – | – | – | – | –
9 | AUAUAUACAUGAGGAUCACCCAUGUUAUUUCGAGGACCGGUACGGCCGCCACUCGAUAGAGUAGAAGUAAAUUUUAAUUCAUGUA [JR_SSTryptoA_Sub008] | 13.9 | 18.7 | 16.8 | – | – | – | – | – | – | –
10 | AAACAUGAGGCGGCCGCCACUGUAUGAACAUGAGGAUCACCCAUGUAUGUACCCAUGUGUGUACACAGGACCGGGCCAUGUGGAU [Exclusion Tryptophan B 4] | 24.8 | 32.3 | 27.8 | – | – | – | – | – | – | –
11 | UUGAUUACCCAAGCGUGAUGGUCCUAGGAACGAGGACCGGUACGGCCGCCACUCGCAAGCAAACAUGAGGAUCACCCAUGUUUAU [theeternabot_exclusion_MS2_Trp_A_19] | 11.2 | 15.9 | 14.1 | – | – | – | – | – | – | –
12 | AGUCUUAAUGGAAGGAGCGCAGUCAUAACAUGAGGAUCACCCAUGUCGAGGUGAGGGUCAUUGCAGGUAGGUCGCCAUACUAAGA [Same State - Arginine B (Freestyle 3)] | 125 | 220 | 265 | 199 | 245 | – | – | – | – | –
13 | UGGUAGCCACACUUCAAACAUCGACAAGAUACCAGUUAAUCAACGAACCCUUGGCAGCUUCGUACAUGAGGAUCACCCAUGUGGA [theeternabot_exclusion_MS2_Theo_A_6] | 18.2 | 24.2 | – | – | 19.5 | – | – | – | – | –
14 | GGAUAGGACACGGCCGCCACUACCUAGGAUACUAGCAACAUUUGGGUGCACGAGGAUCACCCGUGUAGGACCGGGUGUCCUAUCG | 202 | 115 | 102 | 72.5 | 291 | – | – | – | – | –
15 | ACAUUUAACUGAAGGAGCGUGAUAUGUACAUGAGGAUCACCCAUGUCUUUCAUGUGAUUUUCACAGGUAGGUCGCAGACUAAUGA [JR_ExcArginiB_Sub003] | 11.8 | 14.2 | 13 | 11.5 | 11.6 | – | – | – | – | –
16 | AUAUCUUCCACGGCCGCCACUGAAUGGUGCCCAAGGUCGAUCGCAGACAUGAGGAUCACCCAUGUCAGGACCGGGUGGUACUACG [theeternabot_exclusion_MS2_Trp_B_23] | 16.1 | 16.5 | 15.7 | – | – | – | – | – | – | –
17 | CAGUCAGUCAGUCAAUGAGUGAGGCAUGAAGGAGCGUGGGAAACCACAGGUAGGUCGCAUGCGGAACAUGAGGAUCACCCAUGUU [SSArg A #4] | 31.9 | 26.2 | 26.8 | 27.2 | 27.7 | – | – | – | – | –
18 | UAUACAUGAGGAUCACCCAUGUGCCAUGAUACCAGACAUGAAAAUGUCCCUUGGCAGCAUGGGAGAUGUAUAGCGGGAAACCCGA [Turany] | 22.4 | 198 | 677 | 38.9 | 42.6 | – | – | – | – | –

Row | Sequence | apparent KD of MS2 coat protein (MS2 coat protein; input ligand: arginine 13.2 mM) [nM] | apparent KD of MS2 coat protein (MS2 coat protein; [2]) [nM] | apparent KD of MS2 coat protein (MS2 coat protein; [3]) [nM] | apparent KD of MS2 coat protein (MS2 coat protein; input ligand: none) [nM] | apparent KD of MS2 coat protein (MS2 coat protein; [4]) [nM] | apparent KD of K4 kissing-loop reporter ([1]; input ligand: FMN 200 uM) [nM] | apparent KD of K4 kissing-loop reporter ([1]; input ligand: arginine 13.2 mM) [nM] | apparent KD of K4 kissing-loop reporter ([1]; input ligand: none) [nM] | apparent KD of K4 kissing-loop reporter [1, 2] [nM] | apparent KD of K4 kissing-loop reporter [1, 4] [nM]
19 | UAUAUAUAACAUGAGGAUCACCCAUGUAAACGAGGACCGGUACGGCCGCCACUCGGCCGGCAAGGGAGAGGACGGGAAACCGUCG [ETA NP+V+V2 #26] | 12.1 | 23.1 | 23 | 12.8 | 24.4 | – | – | – | – | –
20 | UAAACUACACAUGAGGAUCACCCAUGUGGCCGAGGACCGGUACGGCCGCCACUCGUGUGUUAAUAAAAGAACUGCAAAGUUCCUU [Aquen] | 63.1 | 416 | 504 | – | – | – | – | – | – | –
21 | UGAUACCAGACGGCCGCCACUUCCGCAAGUCAAAGACUUGCCAAGGGAAUCGUCCAGUGAUGUUGGAGGACCGGGUCUGGUAUCU [FiskerMod 4 - Jieux - Exclusion - Tryptophan B] | – | – | – | – | – | 939 | 516 | 1220 | 525 | 587
22 | GUAGACAGACUGCAAGCCUAGUCUACAGACUAGGAUAUCAGGAAACUGAGAAGGAGUCUAGUUGCAGUGAUGUUGCAAGAAUAAU [KL-SSFMN-A24] | – | – | – | – | – | 120 | 135 | 123 | 140 | 99.8
23 | ACGUAGUUCUAGGAUACCAGCCAAGGAGCGCAGGACAAAAGUCCUGCCGCCAGUGAUGUUGGCCCUUGGCAGCCUAGAACUACGA [Omei KL Theo B Exc B v1] | – | – | – | – | – | 193 | 162 | 145 | 165 | 160
24 | GUCCAUGUCCUCAUUCGUGCACUGGACACCAAGGAUAUGUUUAUGGACAGAAGGUGGUUGGGUCAGUGAUGUUGAUAUAAUUAGU [theeternabot_exclusion_KL_FMN_A_24] | – | – | – | – | – | 208 | 276 | 278 | 406 | 194
25 | GAGGGCCCUGUAGGAUAUGAGUCUAGUGAUGUUAGGCGGUCCAUGCGCGUGGCGCGUUAUGCCCUUUUAGAAGGACAGGGCUCUC [#2 Exclusion - FMN B Attempt #21 (HarryS)] | – | – | – | – | – | 109 | 63 | 82.4 | 83.3 | 84.7
26 | AAGUGUGUGGCGGCCGCCACUAGAAUCCAGUGAUGUUGGAGUUAUCAUAUAAUUGAUAAUCAACAUAGGACCGGGCCAUAUAGAA [Same State - Tryptophan B (Freestyle 6)] | – | – | – | – | – | 602 | 441 | 540 | 511 | 416
27 | AAAUUCUUUUUUUUAUUUAACUUUUCAGAAGGAGCGUGGUAGUACACAGGUAGGUCGCUGAAUUUUAGACUAGUGAUGUUAGUUA [JR_SSArginiA_Sub008] | – | – | – | – | – | 130 | 156 | 190 | 182 | 151
28 | UAUAUGCAGUGAUGUUGCGGCACACUUCCGAAGGAUAUGUCCGGUGACAGAAGGUCGGUCCAUGGGACAUCACGUGUGCUUGAUG [theeternabot_exclusion_KL_FMN_A_15] | – | – | – | – | – | 542 | 536 | 613 | 529 | 458
29 | AGACUACUGACAGGAUAUAACAUAUUAGCUCGUAUACCAAAGGUAUACGAGCACCUUCUAGUGAUGUUAGAAGGGUCGGUAGUCA [Omei KL FMN B Exc B v1] | – | – | – | – | – | 297 | 99.8 | 106 | 96.2 | 118
30 | GUUGUCUACCAGAGGUGAUGUAUAGUAUCGCGAGGACCGGUACGGCCGCCACUCGUGAAGAGAAAGGAGUGAUGUUCCGUAAUGG [C10] | – | – | – | – | – | 255 | 271 | 293 | 301 | 118
31 | AUUAAUUUCAGAGGAUAUGCUUAAUUGAUUAAAUAUAAUCUAUUAUGCAGUGAUGUUGCAUUUUUUGCAGAAGGCUGAUUUAUAA [JR_SSFMNB_Sub017] | – | – | – | – | – | 136 | 500 | 506 | 485 | 385
32 | UUUUGGUUCUGAGGAUAUUCGAAGAAAUAUAGUGAUGUUAUAUAAGGAGGAGGAUGGAGGGAGGAAGGAGAAGGCAGAAGAGGAG [ExFMNB.I] | – | – | – | – | – | 890 | 492 | 700 | 923 | 417
33 | AAGUGUGUGGCGGCCGCCACUAGAAUCCAGUGAUGUUGGAGUUAUCAUGUAAAUGAUAAUCAACAUAGGACCGGGCCAUAUAGAA [Same State - Tryptophan B (Freestyle 8)] | – | – | – | – | – | 630 | 377 | 701 | 441 | 349
34 | CGCUUAGUGAUGUUUGAUUUGGCGCAUGCAGAGGAUAUAGGGUGCUUUAGAAGGCUGAGGAGUGCGCCGAGUGAUGUUCGGCGCU [Exclusion FMN A GF12] | – | – | – | – | – | 183 | 141 | 212 | 162 | 166
35 | GCGUUACUGAAAGGAUAUGAUCAACAUAGUGGUCAGUGAUGUUGGCAGGCCUCGUGGCGAGGUAGAUCAGAAGGUUCAUUACGAC [theeternabot_sameState_KL_FMN_B_11] | – | – | – | – | – | 415 | 484 | 553 | 502 | 482
